Kd data for three molecules are collected here from patent US10835618 (UNIVERSITY OF NOTTINGHAM, dated 2020).

The term Kd denotes the free concentration of one partner at which half of the binding sites on the other are occupied at equilibrium, for simple one-to-one binding. A high value points to weaker binding.

For one test, the target named is T1, BxPC3.
T1 construct: Group of unnamed glycoproteins on whole cells; also called cell surface of BxPC3 cells
Kind of test: flow cytometry titration on BxPC3 cells, geometric mean against antibody concentration [panel FACS - BxPC3]. (In flow cytometry, cells or beads pass a laser one at a time.)

The target of the next test is T2, LS180.
T2 construct: Group of unnamed glycoproteins on whole cells; also called cell surface of LS180 cells
Kind of test: flow cytometry titration on LS180 cells, geometric mean against antibody concentration [panel FACS - LS180].

A further test concerns the target T3, HCT-15.
T3 construct: Group of unnamed glycoproteins on whole cells; also called cell surface of HCT-15 cells
Kind of test: flow cytometry titration on HCT-15 cells, geometric mean against antibody concentration [panel FACS - HCT-15].

The target in test [1] is T4, Colo205.
T4 construct: Group of unnamed glycoproteins on whole cells; also called cell surface of Colo205 cells
Description: flow cytometry titration on Colo205 cells, geometric mean against antibody concentration [panel FACS - Colo205].

Test [2] has as its target T4, Colo205. Kind of test: flow cytometry titration on Colo205 cells, Gm value against concentration.

B1: FG129 mAb (mouse FG129/29 IgG1 kappa) (antibody)
heavy: EVQLVESGGGLVQPKGSLKLSCAASGFTFNTYAMNWVRQAPGKGLEWVARIRSKSNNYATYYADSVKDRFTISRDDSQSMLYLQMNNLKKEDTAMYYCVGYGSGGNYWGQGTSVTVSSAKTTPPSVYPLAPGSAAQTNSMVTLGCLVKGYFPEPVTVTWNSGSLSSGVHTFPAVLESDLYTLSSSVTVPSSPRPSETVTCNVAHPASSTKVDKKIVPRDCGCKPCICTVPEVSSVFIFPPKPKDVLTITLTPKVTCVVVDISKDDPEVQFSWFVDDVEVHTAQTQPREEQFNSTFRSVSELPIMHQDWLNGKEFKCRVNSAAFPAPIEKTISKTKGRPKAPQVYTIPPPKEQMAKDKVSLTCMITDFFPEDITVEWQWNGQPAENYKNTQPIMNTNGSYFVYSKLNVQKSNWEAGNTFTCSVLHEGLHNHHTEKSLSHSPGK
light: DIVMTQSPSSLTVTAGEKVTMSCKSSQSLLNSGNQKNYLTWYQQKPGQPPKVLIYWASTRESGVPDRFTGSGSGTDFTLTISSVQAEDLAVYYCQNDYSSPFTFGSGTKLEIKRADAAPTVSIFPPSSEQLTSGGASVVCFLNNFYPKDINVKWKIDGSERQNGVLNSWTDQDSKDSTYSMSSTLTLTKDEYERHNSYTCEATHKTSTSPIVKSFNRNEC
notes: Murine IgG1k from a hybridoma; It recognises the glycans sialyl-di-Lewis a, sialyl-Lewis a-x and mono-sialyl-Lewis a on glycoproteins; also called mAb FG129; F129/29
With B1, the Kd is 80.2 nM with BxPC3, 67.9 nM with LS180, 42.7 nM in the test with HCT-15 and 53.3 nM with Colo205 [1].

B2: FG129-scFv (scFv)
scFv: EVQLVESGGGLVQPKGSLKLSCAASGFTFNTYAMNWVRQAPGKGLEWVARIRSKSNNYATYYADSVKDRFTISRDDSQSMLYLQMNNLKKEDTAMYYCVGYGSGGNYWGQGTSVTVSGGGGSGGGGSGGGGSDIVMTQSPSSLTVTAGEKVTMSCKSSQSLLNSGNQKNYLTWYQQKPGQPPKVLIYWASTRESGVPDRFTGSGSGTDFTLTISSVQAEDLAVYYCQNDYSSPFTFGSGTKLEIKRAAAAAAHHHHHH
notes: Order is leader, VH, 3xGGGGS, VL, 6xAla, 6xHis; The leader is left out as secreted from Expi293 cells; also called scFv129
Consider B2, for which, in the test with Colo205 [2], the Kd is 377 nM.

B3: CH129 (chimeric FG129, mouse variable regions on human IgG1/kappa constant regions) (antibody)
heavy: not shown
light: DIVMTQSPSSLTVTAGEKVTMSCKSSQSLLNSGNQKNYLTWYQQKPGQPPKVLIYWASTRESGVPDRFTGSGSGTDFTLTISSVQAEDLAVYYCQNDYSSPFTFGSGTKLEIKRTVAAPSVFIFPPSDEQLKSGTASVVCLLNNFYPREAKVQWKVDNALQSGNSQESVTEQDSKDSTYSLSSTLTLSKADYEKHKVYACEVTHQGLSSPVTKSFNRGEC
notes: Expressed in CHO-S or HEK293 cells and purified on protein G
B3: the Kd with BxPC3 worked out at 118 nM; with LS180, 110 nM; with HCT-15 it was 15.3 nM; with Colo205 [1], 57.3 nM.
